Assay results published in US20220298218A1 (ANTAG THERAPEUTICS, published 2022).
Read-outs that look alike come from different tables or passages of the source. *1 amine or outer side, *2 acyl side, *3 side chain or, on linkers, in order; H or OH if unused. Where no end group is shown, it is not given here. Side-chain parts run from the residue outwards. The star is where a group is joined. C18 diacid = O=C(O)CCCCCCCCCCCCCCCCC(=O)*; C16 diacid = O=C(O)CCCCCCCCCCCCCCC(=O)*; γGlu = O=C(O)[C@H](CCC(=O)[*:2])N[*:1]; AEEA = NCCOCCOCC(=O)O

T1: human GIP receptor (human, UniProt P48546 22-466)
T1 sequence (looked up): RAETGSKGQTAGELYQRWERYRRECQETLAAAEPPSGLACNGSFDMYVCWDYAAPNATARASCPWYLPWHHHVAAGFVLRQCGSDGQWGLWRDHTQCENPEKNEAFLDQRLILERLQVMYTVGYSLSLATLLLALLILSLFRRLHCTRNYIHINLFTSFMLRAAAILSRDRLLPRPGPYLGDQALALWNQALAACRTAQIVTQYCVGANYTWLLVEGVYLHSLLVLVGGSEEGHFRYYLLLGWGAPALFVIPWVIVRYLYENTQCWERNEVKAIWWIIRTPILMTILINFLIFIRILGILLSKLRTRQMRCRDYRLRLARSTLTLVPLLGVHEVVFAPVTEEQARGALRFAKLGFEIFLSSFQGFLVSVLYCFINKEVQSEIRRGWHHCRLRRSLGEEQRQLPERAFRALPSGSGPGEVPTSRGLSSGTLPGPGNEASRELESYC


Legend:
human GIP receptor [1] = biological target: T1, human GIP receptor; assay: cell-based or functional assay
human GIP receptor [2] = biological target: T1, human GIP receptor; assay: cell-based or functional assay; remark: listed apart in the source

Binder | cAMP antagonism (human GIP receptor [1]) | cAMP antagonism % inhib (human GIP receptor [1]) | cAMP antagonism log (human GIP receptor [1]) | cAMP agonism % Emax (human GIP receptor [2]) | cAMP antagonism (human GIP receptor [2]) | cAMP antagonism % inhib (human GIP receptor [2]) | cAMP antagonism pIC50 (human GIP receptor [2])
EGTFISDYSIAMDKIK([AEEA-AEEA-γGlu-C16 diacid])QQDFVNWLLAQKGPSSGAPPPS-OH (N-terminus assumed; SMILES CC[C@H](C)[C@H](NC(=O)[C@H](CO)NC(=O)[C@H](Cc1ccc(O)cc1)NC(=O)[C@H](CC(=O)O)NC(=O)[C@H](CO)NC(=O)[C@@H](NC(=O)[C@H](Cc1ccccc1)NC(=O)[C@@H](NC(=O)CNC(=O)[C@@H](N)CCC(=O)O)[C@@H](C)O)[C@@H](C)CC)C(=O)N[C@@H](C)C(=O)N[C@@H](CCSC)C(=O)N[C@@H](CC(=O)O)C(=O)N[C@@H](CCCCN)C(=O)N[C@H](C(=O)N[C@@H](CCCCNC(=O)COCCOCCNC(=O)COCCOCCNC(=O)CC[C@H](NC(=O)CCCCCCCCCCCCCCC(=O)O)C(=O)O)C(=O)N[C@@H](CCC(N)=O)C(=O)N[C@@H](CCC(N)=O)C(=O)N[C@@H](CC(=O)O)C(=O)N[C@@H](Cc1ccccc1)C(=O)N[C@H](C(=O)N[C@@H](CC(N)=O)C(=O)N[C@@H](Cc1c[nH]c2ccccc12)C(=O)N[C@@H](CC(C)C)C(=O)N[C@@H](CC(C)C)C(=O)N[C@@H](C)C(=O)N[C@@H](CCC(N)=O)C(=O)N[C@@H](CCCCN)C(=O)NCC(=O)N1CCC[C@H]1C(=O)N[C@@H](CO)C(=O)N[C@@H](CO)C(=O)NCC(=O)N[C@@H](C)C(=O)N1CCC[C@H]1C(=O)N1CCC[C@H]1C(=O)N1CCC[C@H]1C(=O)N[C@@H](CO)C(=O)O)C(C)C)[C@@H](C)CC) [AT431] | 7 nM | 75% | -8.1 log M | 0% | 34.2 nM | 77% | 7.5
SGTFISDYSIAMDRIK([AEEA-AEEA-γGlu-C16 diacid])QQDFVNWLLAQRGPSSGAPPPS-OH (N-terminus assumed; SMILES CC[C@H](C)[C@H](NC(=O)[C@H](CO)NC(=O)[C@H](Cc1ccc(O)cc1)NC(=O)[C@H](CC(=O)O)NC(=O)[C@H](CO)NC(=O)[C@@H](NC(=O)[C@H](Cc1ccccc1)NC(=O)[C@@H](NC(=O)CNC(=O)[C@@H](N)CO)[C@@H](C)O)[C@@H](C)CC)C(=O)N[C@@H](C)C(=O)N[C@@H](CCSC)C(=O)N[C@@H](CC(=O)O)C(=O)N[C@@H](CCCNC(=N)N)C(=O)N[C@H](C(=O)N[C@@H](CCCCNC(=O)COCCOCCNC(=O)COCCOCCNC(=O)CC[C@H](NC(=O)CCCCCCCCCCCCCCC(=O)O)C(=O)O)C(=O)N[C@@H](CCC(N)=O)C(=O)N[C@@H](CCC(N)=O)C(=O)N[C@@H](CC(=O)O)C(=O)N[C@@H](Cc1ccccc1)C(=O)N[C@H](C(=O)N[C@@H](CC(N)=O)C(=O)N[C@@H](Cc1c[nH]c2ccccc12)C(=O)N[C@@H](CC(C)C)C(=O)N[C@@H](CC(C)C)C(=O)N[C@@H](C)C(=O)N[C@@H](CCC(N)=O)C(=O)N[C@@H](CCCNC(=N)N)C(=O)NCC(=O)N1CCC[C@H]1C(=O)N[C@@H](CO)C(=O)N[C@@H](CO)C(=O)NCC(=O)N[C@@H](C)C(=O)N1CCC[C@H]1C(=O)N1CCC[C@H]1C(=O)N1CCC[C@H]1C(=O)N[C@@H](CO)C(=O)O)C(C)C)[C@@H](C)CC) [AT439] | 9 nM | 100% | -8 log M | 0% | 14.7 nM | 93% | 7.8
SGTFISDYSIAMDKIK([AEEA-AEEA-γGlu-C18 diacid])QQDFVNWLLAQKGPSSGAPPPS-OH (N-terminus assumed; SMILES CC[C@H](C)[C@H](NC(=O)[C@H](CO)NC(=O)[C@H](Cc1ccc(O)cc1)NC(=O)[C@H](CC(=O)O)NC(=O)[C@H](CO)NC(=O)[C@@H](NC(=O)[C@H](Cc1ccccc1)NC(=O)[C@@H](NC(=O)CNC(=O)[C@@H](N)CO)[C@@H](C)O)[C@@H](C)CC)C(=O)N[C@@H](C)C(=O)N[C@@H](CCSC)C(=O)N[C@@H](CC(=O)O)C(=O)N[C@@H](CCCCN)C(=O)N[C@H](C(=O)N[C@@H](CCCCNC(=O)COCCOCCNC(=O)COCCOCCNC(=O)CC[C@H](NC(=O)CCCCCCCCCCCCCCCCC(=O)O)C(=O)O)C(=O)N[C@@H](CCC(N)=O)C(=O)N[C@@H](CCC(N)=O)C(=O)N[C@@H](CC(=O)O)C(=O)N[C@@H](Cc1ccccc1)C(=O)N[C@H](C(=O)N[C@@H](CC(N)=O)C(=O)N[C@@H](Cc1c[nH]c2ccccc12)C(=O)N[C@@H](CC(C)C)C(=O)N[C@@H](CC(C)C)C(=O)N[C@@H](C)C(=O)N[C@@H](CCC(N)=O)C(=O)N[C@@H](CCCCN)C(=O)NCC(=O)N1CCC[C@H]1C(=O)N[C@@H](CO)C(=O)N[C@@H](CO)C(=O)NCC(=O)N[C@@H](C)C(=O)N1CCC[C@H]1C(=O)N1CCC[C@H]1C(=O)N1CCC[C@H]1C(=O)N[C@@H](CO)C(=O)O)C(C)C)[C@@H](C)CC) [AT437] | 8 nM | 100% | -8.1 log M | 0% | 35.5 nM | 83% | 7.5
EGTFISDYSIAMDKIK([AEEA-AEEA-AEEA-γGlu-C18 diacid])QQDFVNWLLAQKGPSSGAPPPS-OH (N-terminus assumed; SMILES CC[C@H](C)[C@H](NC(=O)[C@H](CO)NC(=O)[C@H](Cc1ccc(O)cc1)NC(=O)[C@H](CC(=O)O)NC(=O)[C@H](CO)NC(=O)[C@@H](NC(=O)[C@H](Cc1ccccc1)NC(=O)[C@@H](NC(=O)CNC(=O)[C@@H](N)CCC(=O)O)[C@@H](C)O)[C@@H](C)CC)C(=O)N[C@@H](C)C(=O)N[C@@H](CCSC)C(=O)N[C@@H](CC(=O)O)C(=O)N[C@@H](CCCCN)C(=O)N[C@H](C(=O)N[C@@H](CCCCNC(=O)COCCOCCNC(=O)COCCOCCNC(=O)COCCOCCNC(=O)CC[C@H](NC(=O)CCCCCCCCCCCCCCCCC(=O)O)C(=O)O)C(=O)N[C@@H](CCC(N)=O)C(=O)N[C@@H](CCC(N)=O)C(=O)N[C@@H](CC(=O)O)C(=O)N[C@@H](Cc1ccccc1)C(=O)N[C@H](C(=O)N[C@@H](CC(N)=O)C(=O)N[C@@H](Cc1c[nH]c2ccccc12)C(=O)N[C@@H](CC(C)C)C(=O)N[C@@H](CC(C)C)C(=O)N[C@@H](C)C(=O)N[C@@H](CCC(N)=O)C(=O)N[C@@H](CCCCN)C(=O)NCC(=O)N1CCC[C@H]1C(=O)N[C@@H](CO)C(=O)N[C@@H](CO)C(=O)NCC(=O)N[C@@H](C)C(=O)N1CCC[C@H]1C(=O)N1CCC[C@H]1C(=O)N1CCC[C@H]1C(=O)N[C@@H](CO)C(=O)O)C(C)C)[C@@H](C)CC) [AT434] | 14 nM | 100% | -7.9 log M | – | 35.5 nM | 95% | 7.5
EGTFISDYSIAMDKIK([AEEA-AEEA-γGlu-C18 diacid])QQDFVNWLLAQKGPSSGAPPPS [AT433] | 62 nM | 100% | -7.2 log M | 0% | 7.94 nM | 89% | 8.1
SGTFISDYSIAMDKIK([AEEA-AEEA-γGlu-C16 diacid])QQDFVNWLLAQKGPSSGAPPPS-OH (N-terminus assumed; SMILES CC[C@H](C)[C@H](NC(=O)[C@H](CO)NC(=O)[C@H](Cc1ccc(O)cc1)NC(=O)[C@H](CC(=O)O)NC(=O)[C@H](CO)NC(=O)[C@@H](NC(=O)[C@H](Cc1ccccc1)NC(=O)[C@@H](NC(=O)CNC(=O)[C@@H](N)CO)[C@@H](C)O)[C@@H](C)CC)C(=O)N[C@@H](C)C(=O)N[C@@H](CCSC)C(=O)N[C@@H](CC(=O)O)C(=O)N[C@@H](CCCCN)C(=O)N[C@H](C(=O)N[C@@H](CCCCNC(=O)COCCOCCNC(=O)COCCOCCNC(=O)CC[C@H](NC(=O)CCCCCCCCCCCCCCC(=O)O)C(=O)O)C(=O)N[C@@H](CCC(N)=O)C(=O)N[C@@H](CCC(N)=O)C(=O)N[C@@H](CC(=O)O)C(=O)N[C@@H](Cc1ccccc1)C(=O)N[C@H](C(=O)N[C@@H](CC(N)=O)C(=O)N[C@@H](Cc1c[nH]c2ccccc12)C(=O)N[C@@H](CC(C)C)C(=O)N[C@@H](CC(C)C)C(=O)N[C@@H](C)C(=O)N[C@@H](CCC(N)=O)C(=O)N[C@@H](CCCCN)C(=O)NCC(=O)N1CCC[C@H]1C(=O)N[C@@H](CO)C(=O)N[C@@H](CO)C(=O)NCC(=O)N[C@@H](C)C(=O)N1CCC[C@H]1C(=O)N1CCC[C@H]1C(=O)N1CCC[C@H]1C(=O)N[C@@H](CO)C(=O)O)C(C)C)[C@@H](C)CC) [AT435] | 75 nM | 100% | -7.1 log M | – | 79.4 nM | 84% | 7.1
